# Results published in patent US20250051429A1 (Hoffmann-La Roche, published 2025).
# Where a chain is given by its changes, count along the chain named. Numbers in names are those of the source.
# B1: gantenerumab (antibody, human IgG1, V domains shown)
# VH: QVELVESGGGLVQPGGSLRLSCAASGFTFSSYAMSWVRQAPGKGLEWVSAINASGTRTYYADSVKGRFTISRDNSKNTLYLQMNSLRAEDTAVYYCARGKGNTHKPYGYVRYFDVWGQGTLVTVSS
# VL: DIVLTQSPATLSLSPGERATLSCRASQSVSSSYLAWYQQKPGQAPRLLIYGASSRATGVPARFSGSGSGTDFTLTISSLEPEDFATYYCLQIYNMPITFGQGTKVEIK
# modifications: glycosylation site in heavy chain CDR2 (NAS); Fab glycosylation (CE-SDS) 30-80 %
# notes: kappa light chain; also called parent antibody gantenerumab; wt: NAS
# B2: mAb 675 (antibody, V domains shown)
# VH: QVELVESGGGLVQPGGSLRLSCAASGFTFSSYAMSWVRQAPGKGLEWVSAINATGTRTYYADSVKGRFTISRDNSKNTLYLQMNSLRAEDTAVYYCARGKGSSGYVRYFDVWGQGTLVTVSS
# VL: B1 VL
# modifications: glycosylation site in heavy chain CDR2 (NAT); Fab glycosylation (CE-SDS) 100 %
# notes: Variant of gantenerumab: heavy chain S53T (Kabat) and shortened heavy chain CDR3, wild-type light chain; Only variable domains are tied to the name; also called 142; gantenerumab VH NAT variant with wild-type light chain
# B3: mAb 663 (antibody, V domains shown)
# VH: B2 VH with N52Q, T54S
# VL: B1 VL
# modifications: no Fab glycosylation (CE-SDS 0 %)
# notes: Variant of gantenerumab: heavy chain N52Q (Kabat) and shortened heavy chain CDR3, wild-type light chain; also called 143; gantenerumab VH QAS variant with wild-type light chain
# B4: mAb 651 (antibody, V domains shown)
# VH: B2 VH
# VL: B1 VL with M95H
# modifications: glycosylation site in heavy chain CDR2 (NAT); Fab glycosylation (CE-SDS) 100 %
# notes: Variant of gantenerumab: heavy chain S53T, shortened heavy chain CDR3, light chain M95H (Kabat); also called 144
# B5: mAb 638 (antibody, V domains shown)
# VH: B2 VH with N52Q, T54S
# VL: B1 VL with M95H
# modifications: no Fab glycosylation (CE-SDS 0 %)
# notes: Variant of gantenerumab: heavy chain N52Q, shortened heavy chain CDR3, light chain M95H (Kabat)
# Molecular target: T1, human A-beta protein, fibrillar A-beta(1-40) coated for the ELISA (human)
# T1 construct: also called Aβ1-40 fibers; fibrillar Aβ
# Experiment: ELISA, antibody on coated fibrillar A-beta(1-40)
# Method: Binding of the antibodies to fibrillar Aβ is measured by an ELISA assay. Briefly, AD(1-40) is coated at 7 μg/mL in PBS onto Maxisorb plates for 3 days at 37° C. to produce fibrillar Abeta, and then dried for 3 h at RT. The plate is blocked with 1% CroteinC and 0.1% RSA in PBS (blocking buffer) for 1 h at RT, then washed once with wash buffer. Antibodies or controls are added at concentrations up to 100 nM in blocking buffer and incubated at 4° C. overnight. After 4 wash steps, constructs are detected by addition of anti-human-IgG-HRP (Jackson Immunoresearch) at 1:10,000 dilution in blocking buffer […], followed by 6 washes and incubation in TMB (Sigma). Absorbance is read out at 450 nm after stopping color development with 1 N HCl.
# T1 sequence (peptide, as listed by the source): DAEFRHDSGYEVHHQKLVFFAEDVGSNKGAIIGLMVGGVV
row,EC50 [nM],Binder
1,0.2,B1
2,0.2,B2
3,0.2,B3
4,4,B4
5,0.2,B5
